Data as given in patent US20040248206A1 (FIBROGEN, published 2004).
Blank lines part the entries; values can stand above or below the binder they belong to.

Assays:
[1] = target: T1, recombinant human connective tissue growth factor (human, UniProt P29279 27-349); assay: RIA, immobilized antibody, [125I]rhCTGF with unlabeled rhCTGF, Scatchard
T1 construct: Radio-iodinated in the RIA; also called rhCTGF; CTGF
T1 sequence: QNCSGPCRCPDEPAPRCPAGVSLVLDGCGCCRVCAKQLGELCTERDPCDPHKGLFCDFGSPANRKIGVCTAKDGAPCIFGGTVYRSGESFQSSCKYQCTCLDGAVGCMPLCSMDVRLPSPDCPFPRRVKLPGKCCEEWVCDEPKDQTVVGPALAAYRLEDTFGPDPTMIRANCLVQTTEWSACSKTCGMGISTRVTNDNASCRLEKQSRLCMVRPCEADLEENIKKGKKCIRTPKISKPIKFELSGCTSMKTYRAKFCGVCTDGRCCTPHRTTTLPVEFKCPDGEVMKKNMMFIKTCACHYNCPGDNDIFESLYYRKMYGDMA
Procedure: The affinity of each antibody population identified by epitope mapping was measured using RIA, wherein whole rhCTGF was radio-iodinated and added to wells containing immobilized monoclonal antibody, as follows. Recombinant human CTGF was radiolabeled with ¹²⁵I using the chloramine-T method. (See, Greenwood et al. (1963) Biochem J 89:114-123.) Typically, at least 60% of the ¹²⁵I was incorporated and the specific activity of the labeled CTGF was at least 1×10⁵ cpm/ng, although labeled CTGF of lower specific activity can be used in the radioimmunoassay. Goat anti-human IgG, γFc-specific capture antibody (Jackson ImmunoResearch) in Ca²⁺- and Mg²⁺-free DPBS (Mediatech, Herrndon Va.) was added to the wells of a MAXISORP BREAKAPART microtiter plate (Nalge Nunc International, Rochester N.Y.) and allowed to bind overnight at 4° C. The wells were then blocked with 1% BSA in Ca²⁺- and Mg²⁺-free DPBS for at least 4 hours at 4° C. […] Wells were then washed four times with 0.1% Tween 20 in Ca²⁺- and Mg²⁺-free PBS (Mediatech), and the wells of the microtiter plate were separated and counted in a gamma counter.
Affinity was estimated graphically by the method of Scatchard (1948, Ann NY Acad Sci 51:660-72). The total concentration of labeled CTGF applied to the plate was calculated as […]

[2] = target: T2, recombinant human connective tissue growth factor (UniProt P29279 27-349); assay: Scatchard competitive binding; mAb 2.5 ng/ml
T2 chain: T1 sequence

[3] = target: T2, recombinant human connective tissue …; assay: Scatchard competitive binding; mAb 25 ng/ml
7MER = target: T3, 7MER; assay: ELISA with synthetic peptide
T3 construct: The N-terminal C is probably the added, non-native cysteine (underlining lost in the text)
T3 peptide: CPRRVKL

P40340 = target: T4, P40340 (human); assay: ELISA with synthetic peptide
T4 peptide: RLPSPDCPFPRRV

10MER2 = target: T5, 10MER2; assay: ELISA with synthetic peptide
T5 peptide: SPDCPFPRRV

8MER2 = target: T6, 8MER2; assay: ELISA with synthetic peptide
T6 peptide: CFPRRVKL

8MER = target: T7, 8MER; assay: ELISA with synthetic peptide
T7 peptide: DSPFPRRV

PEP5 = target: T8, PEP5 (human); assay: ELISA with synthetic peptide
T8 peptide: RLPSPDCPFPRRVKL

10MER = target: T9, 10MER; assay: ELISA with synthetic peptide
T9 peptide: SPDSPFPRRV

9MER = target: T10, 9MER; assay: ELISA with synthetic peptide
T10 peptide: PDSPFPRRV

PC5444 = target: T11, PC5444; assay: ELISA with synthetic peptide
T11 construct: Synthetic peptide of the exon 3 region with Ser where native CTGF has Cys
T11 peptide: PLSSMDVRLPSPDS

5MER = target: T12, 5MER; assay: ELISA with synthetic peptide
T12 construct: The N-terminal C is probably the added, non-native cysteine (underlining lost in the text)
T12 peptide: CRVKL

P40342 = target: T13, P40342 (human); assay: ELISA with synthetic peptide
T13 peptide: LPSPDCPFPRRVKL

PC5445 = target: T14, PC5445 (human); assay: ELISA with synthetic peptide
T14 peptide: RLPSPDSPFPRRVKLPGK

9MER2 = target: T15, 9MER2; assay: ELISA with synthetic peptide
T15 peptide: CPFPRRVKL

P40341 = target: T16, P40341; assay: ELISA with synthetic peptide
T16 construct: Same as P40340 with Ser in place of the Cys
T16 peptide: RLPSPDSPFPRRV

6MER = target: T17, 6MER; assay: ELISA with synthetic peptide
T17 construct: The N-terminal C is probably the added, non-native cysteine (underlining lost in the text)
T17 peptide: CRRVKL

rat CTGF [4] = target: T18, rat CTGF (rat, UniProt Q9R1E9 25-347); assay: Scatchard competitive binding; mAb 10 ng/ml; labeled human CTGF vs unlabeled rat CTGF
T18 chain: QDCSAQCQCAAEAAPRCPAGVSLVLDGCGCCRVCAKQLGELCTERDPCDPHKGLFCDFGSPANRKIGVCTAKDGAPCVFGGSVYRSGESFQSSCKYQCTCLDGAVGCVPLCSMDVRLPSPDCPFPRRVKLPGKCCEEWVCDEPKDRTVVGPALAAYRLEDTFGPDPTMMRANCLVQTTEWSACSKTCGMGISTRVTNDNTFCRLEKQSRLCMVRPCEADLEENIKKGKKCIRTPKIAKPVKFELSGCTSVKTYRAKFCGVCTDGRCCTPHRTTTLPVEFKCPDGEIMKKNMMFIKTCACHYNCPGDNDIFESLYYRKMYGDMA

[5] = target: T2, recombinant human connective tissue …; assay: Scatchard competitive binding; mAb 5 ng/ml
rat CTGF [6] = target: T18, rat CTGF; assay: Scatchard competitive binding; mAb 5 ng/ml; labeled human CTGF vs unlabeled rat CTGF
[7] = target: T2, recombinant human connective tissue …; assay: Scatchard competitive binding; mAb 10 ng/ml
rat CTGF [8] = target: T19, rat CTGF (rat, UniProt Q9R1E9 25-347); assay: RIA, unlabeled rat CTGF competing with [125I]rhCTGF for immobilized antibody
T19 construct: also called unlabeled rat CTGF; recombinant rat CTGF
T19 sequence (looked up): T18 chain
Procedure: (§1) The affinity of each antibody population identified by epitope mapping was measured using RIA, wherein whole rhCTGF was radio-iodinated and added to wells containing immobilized monoclonal antibody, as follows. Recombinant human CTGF was radiolabeled with ¹²⁵I using the chloramine-T method. (See, Greenwood et al. (1963) Biochem J 89:114-123.) Typically, at least 60% of the ¹²⁵I was incorporated and the specific activity of the labeled CTGF was at least 1×10⁵ cpm/ng, although labeled CTGF of lower specific activity can be used in the radioimmunoassay. Goat anti-human IgG, γFc-specific capture antibody (Jackson ImmunoResearch) in Ca²⁺- and Mg²⁺-free DPBS (Mediatech, Herrndon Va.) was added to the wells of a MAXISORP BREAKAPART microtiter plate (Nalge Nunc International, Rochester N.Y.) and allowed to bind overnight at 4° C. The wells were then blocked with 1% BSA in Ca²⁺- and Mg²⁺-free DPBS for at least 4 hours at 4° C. The blocking solution was removed and 100 μl of test antibody at 2-50 ng/ml in Ca²⁺- and Mg²⁺-free DPBS was added and allowed to bind overnight at 4° C. […] Wells were then washed four times with 0.1% Tween 20 in Ca²⁺- and Mg²⁺-free PBS (Mediatech), and the wells of the microtiter plate were separated and counted in a gamma counter. […]

[9] = target: T1, recombinant human connective tissue …; assay: RIA as in Example 4.2
Procedure: as §1

[10] = target: T1, recombinant human connective tissue …; assay: not stated (assays as described in Example 4)

Kd [1]: < 1 nM | Kd [2]: 0.215 nM | Kd [3]: 0.384 nM | binding result (7MER): no binding | binding result (P40340): binds | binding result (10MER2): no binding | binding result (8MER2): no binding | binding result (8MER): no binding | binding result (PEP5): binds | binding result (10MER): no binding | binding result (9MER): no binding | binding result (PC5444): no binding | binding result (5MER): no binding | binding result (P40342): binds | binding result (PC5445): binds | binding result (9MER2): no binding | binding result (P40341): no binding | binding result (6MER): no binding | Kd (rat CTGF [4]): 0.339 nM | Kd [5]: 0.239 nM | Kd (rat CTGF [6]): 0.317 nM | Kd [7]: 0.271 nM | binding result (rat CTGF [8]): binds
B1: mAb1 (antibody, V domains shown)
VH: EGQLVQSGGGLVHPGGSLRLSCAGSGFTFSSYGMHWVRQAPGKGLEWVSGIGTGGGTYSTDSVKGRFTISRDNAKNSLYLQMNSLRAEDMAVYYCARGDYYGSGSFFDCWGQGTLVTVSS
VL: DIQMTQSPSSLSASVGDRVTITCRASQGISSWLAWYQQKPEKAPKSLIYAASSLQSGVPSRFSGSGSGTDFTLTISSLQPEDFATYYCQQYNSYPPTFGQGTKLEIKR
notes: also called exemplary antibody of the invention; antibody of hybridoma cell line 8C12-F10

binding result [9]: binds
B2: deglycosylated mAb1 (antibody, V domains shown)
VH: B1 VH
VL: B1 VL
modifications: N-linked oligosaccharides removed with peptide N-glycosidase F (PNGase F)
notes: also called deglycosylated antibody; PNGase F treated mAb1

Kd [10]: 0.8 nM
B3: CLN1 (antibody, V domains shown)
VH: B1 VH
VL: B1 VL
notes: also called recombinant antibody from COS7 cells co-transfected with plasmids 44a1 and 42b2
